Experimental data taken from publication PMC12518634 (2025).

Tests used:
His-HDAC2, recombinant = His-HDAC2, recombinant (UniProt Q92769 1-488); experiment: SPR
His-HDAC1, recombinant = His-HDAC1, recombinant (human, UniProt Q13547 1-482); experiment: SPR
Sequence of His-HDAC1, recombinant (Q13547 whole entry): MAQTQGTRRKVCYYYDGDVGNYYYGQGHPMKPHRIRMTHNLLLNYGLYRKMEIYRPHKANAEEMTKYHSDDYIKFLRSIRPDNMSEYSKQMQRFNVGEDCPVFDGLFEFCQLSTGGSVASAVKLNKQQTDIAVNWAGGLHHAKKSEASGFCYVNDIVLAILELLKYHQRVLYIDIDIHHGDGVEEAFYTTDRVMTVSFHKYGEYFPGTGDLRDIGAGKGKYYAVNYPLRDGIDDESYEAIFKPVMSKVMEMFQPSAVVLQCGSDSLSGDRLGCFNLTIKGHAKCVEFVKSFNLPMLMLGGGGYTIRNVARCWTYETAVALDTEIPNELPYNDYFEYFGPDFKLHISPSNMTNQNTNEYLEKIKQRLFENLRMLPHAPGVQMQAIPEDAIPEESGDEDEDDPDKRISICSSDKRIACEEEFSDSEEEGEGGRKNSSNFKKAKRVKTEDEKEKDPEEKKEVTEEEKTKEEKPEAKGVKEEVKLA

Sequence of His-HDAC2, recombinant (Q92769 whole entry): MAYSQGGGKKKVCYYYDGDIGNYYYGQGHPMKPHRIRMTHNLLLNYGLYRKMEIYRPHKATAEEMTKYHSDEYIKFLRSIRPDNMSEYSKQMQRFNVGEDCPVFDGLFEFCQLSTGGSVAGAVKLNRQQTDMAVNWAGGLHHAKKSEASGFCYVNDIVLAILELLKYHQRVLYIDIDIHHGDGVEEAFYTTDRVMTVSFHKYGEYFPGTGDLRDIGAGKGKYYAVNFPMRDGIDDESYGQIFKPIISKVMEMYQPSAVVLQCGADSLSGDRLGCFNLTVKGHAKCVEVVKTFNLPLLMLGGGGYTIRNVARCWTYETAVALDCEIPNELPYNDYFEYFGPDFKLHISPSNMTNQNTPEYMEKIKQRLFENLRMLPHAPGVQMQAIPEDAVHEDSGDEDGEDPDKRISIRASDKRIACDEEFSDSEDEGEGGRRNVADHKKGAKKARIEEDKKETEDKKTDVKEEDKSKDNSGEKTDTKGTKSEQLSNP

B1: GST-PFKL, recombinant (enzyme)
chain: MAAVDLEKLRASGAGKAIGVLTSGGDAQGMNAAVRAVTRMGIYVGAKVFLIYEGYEGLVEGGENIKQANWLSVSNIIQLGGTIIGSARCKAFTTREGRRAAAYNLVQHGITNLCVIGGDGSLTGANIFRSEWGSLLEELVAEGKISETTARTYSHLNIAGLVGSIDNDFCGTDMTIGTDSALHRIMEVIDAITTTAQSHQRTFVLEVMGRHCGYLALVSALASGADWLFIPEAPPEDGWENFMCERLGETRSRGSRLNIIIIAEGAIDRNGKPISSSYVKDLVVQRLGFDTRVTVLGHVQRGGTPSAFDRILSSKMGMEAVMALLEATPDTPACVVTLSGNQSVRLPLMECVQMTKEVQKAMDDKRFDEATQLRGGSFENNWNIYKLLAHQKPPKEKSNFSLAILNVGAPAAGMNAAVRSAVRTGISHGHTVYVVHDGFEGLAKGQVQEVGWHDVAGWLGRGGSMLGTKRTLPKGQLESIVENIRIYGIHALLVVGGFEAYEGVLQLVEARGRYEELCIVMCVIPATISNNVPGTDFSLGSDTAVNAAMESCDRIKQSASGTKRRVFIVETMGGYCGYLATVTGIAVGADAAYVFEDPFNIHDLKVNVEHMTEKMKTDIQRGLVLRNEKCHDYYTTEFLYNLYSSEGKGVFDCRTNVLGHLQQGGAPTPFDRNYGTKLGVKAMLWLSEKLREVYRKGRVFANAPDSACVIGLKKKAVAFSPVTELKKDTDFEHRMPREQWWLSLRLMLKMLAQYRISMAAYVSGELEHVTRRTLSMDKGF
Which Kd (His-HDAC2, recombinant) does the source give for B1 here?
The Kd was 9.5 nM.

And the Kd (His-HDAC1, recombinant)?
The Kd was 2.18 nM.
